Measured values: IntAct's records for PubMed 25416956

Experiments:
[1] = target: tm239_human TMEM239 (UniProt Q8WW34)
[2] = target: praf1_human RABAC1 (UniProt Q9UI14)
[3] = target: tfp11_human TFIP11 (UniProt Q9UBB9)
[4] = target: ldaf1_human LDAF1 (UniProt Q96B96)
[5] = target: reep6_human REEP6 (UniProt Q96HR9)
[6] = target: tfp11_human TFIP11 (UniProt Q9UBB9); remark: listed apart in the source
[7] = target: praf1_human RABAC1 (UniProt Q9UI14); remark: listed apart in the source
[8] = target: reep6_human REEP6 (UniProt Q96HR9); remark: listed apart in the source
[9] = target: tm239_human TMEM239 (UniProt Q8WW34); remark: listed apart in the source
[10] = target: ldaf1_human LDAF1 (UniProt Q96B96); remark: listed apart in the source
[11] = target: tfp11_human TFIP11 (UniProt Q9UBB9); remark: listed apart in the source
[12] = target: reep6_human REEP6 (UniProt Q96HR9); remark: listed apart in the source
[13] = target: atrap_human AGTRAP (UniProt Q6RW13)
[14] = target: tm239_human TMEM239 (UniProt Q8WW34); remark: listed apart in the source
[15] = target: praf1_human RABAC1 (UniProt Q9UI14); remark: listed apart in the source
[16] = target: ldaf1_human LDAF1 (UniProt Q96B96); remark: listed apart in the source

Measured: effect of a mutation on the interaction

tfp11_human TFIP11, sequence (Q9UBB9 whole entry): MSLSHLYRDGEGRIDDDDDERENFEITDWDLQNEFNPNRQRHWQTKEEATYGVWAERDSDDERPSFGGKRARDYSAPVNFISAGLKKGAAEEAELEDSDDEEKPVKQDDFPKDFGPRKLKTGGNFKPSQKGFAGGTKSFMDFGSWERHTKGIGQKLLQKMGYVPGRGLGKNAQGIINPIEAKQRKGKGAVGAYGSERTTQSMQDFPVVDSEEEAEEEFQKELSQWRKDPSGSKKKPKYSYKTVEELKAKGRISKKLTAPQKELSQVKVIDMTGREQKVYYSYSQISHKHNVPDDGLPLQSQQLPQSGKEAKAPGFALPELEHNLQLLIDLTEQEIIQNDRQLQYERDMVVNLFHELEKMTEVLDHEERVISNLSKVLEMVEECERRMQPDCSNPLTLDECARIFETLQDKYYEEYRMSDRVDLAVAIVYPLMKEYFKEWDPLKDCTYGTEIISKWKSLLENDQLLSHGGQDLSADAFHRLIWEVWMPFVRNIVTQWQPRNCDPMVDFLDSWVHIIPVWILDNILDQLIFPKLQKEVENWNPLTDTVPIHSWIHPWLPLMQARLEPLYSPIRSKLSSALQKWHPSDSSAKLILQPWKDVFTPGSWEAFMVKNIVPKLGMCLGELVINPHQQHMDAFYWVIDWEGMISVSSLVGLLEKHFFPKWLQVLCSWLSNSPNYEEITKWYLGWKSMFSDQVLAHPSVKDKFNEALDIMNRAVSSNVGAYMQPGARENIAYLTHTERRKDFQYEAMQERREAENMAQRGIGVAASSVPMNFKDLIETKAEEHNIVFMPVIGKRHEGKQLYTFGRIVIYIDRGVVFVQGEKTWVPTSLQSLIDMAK
ldaf1_human LDAF1, sequence (Q96B96 whole entry): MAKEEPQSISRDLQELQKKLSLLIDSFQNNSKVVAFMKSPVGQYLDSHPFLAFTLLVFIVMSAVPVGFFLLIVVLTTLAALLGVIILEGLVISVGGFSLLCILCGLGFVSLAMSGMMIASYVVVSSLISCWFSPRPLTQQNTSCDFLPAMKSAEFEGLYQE
reep6_human REEP6, sequence (Q96HR9 whole entry): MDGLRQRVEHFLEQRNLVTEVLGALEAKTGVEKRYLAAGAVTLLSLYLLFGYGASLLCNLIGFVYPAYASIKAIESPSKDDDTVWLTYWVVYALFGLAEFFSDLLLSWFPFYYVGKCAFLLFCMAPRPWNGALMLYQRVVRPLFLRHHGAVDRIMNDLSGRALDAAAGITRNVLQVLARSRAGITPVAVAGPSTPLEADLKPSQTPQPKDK
praf1_human RABAC1, sequence (Q9UI14 whole entry): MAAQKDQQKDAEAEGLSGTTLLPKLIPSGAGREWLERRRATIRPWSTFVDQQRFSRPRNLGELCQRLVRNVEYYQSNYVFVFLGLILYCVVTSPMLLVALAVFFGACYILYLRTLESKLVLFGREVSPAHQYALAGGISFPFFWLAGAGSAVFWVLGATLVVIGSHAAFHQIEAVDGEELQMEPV
tm239_human TMEM239, sequence (Q8WW34 whole entry): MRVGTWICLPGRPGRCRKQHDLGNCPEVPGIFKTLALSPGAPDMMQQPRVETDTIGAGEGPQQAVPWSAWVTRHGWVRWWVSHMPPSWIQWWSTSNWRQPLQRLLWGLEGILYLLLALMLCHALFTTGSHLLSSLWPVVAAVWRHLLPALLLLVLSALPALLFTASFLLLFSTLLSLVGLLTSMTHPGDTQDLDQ
atrap_human AGTRAP, sequence (Q6RW13 whole entry): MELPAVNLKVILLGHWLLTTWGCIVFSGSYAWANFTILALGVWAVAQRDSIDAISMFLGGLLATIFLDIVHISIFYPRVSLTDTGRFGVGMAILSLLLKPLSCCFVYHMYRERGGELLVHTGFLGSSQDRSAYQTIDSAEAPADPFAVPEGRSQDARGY

Atypical kinase COQ8A, mitochondrial (Homo sapiens), Q8NI60 E551K
disrupting interaction: [1] | [2] | [3] | [4] | [5]

Atypical kinase COQ8A, mitochondrial (Homo sapiens), Q8NI60 G272V
disrupting interaction: [6] | [7] | [8] | [9] | [10]

Atypical kinase COQ8A, mitochondrial (Homo sapiens), Q8NI60 R213W
disrupting interaction: [11] | [12] | [13] | [14] | [15] | [16]
